The source of these data is US20140363495A1.

For test [1], the target named is HLA-A2 molecules on T2A2 cells (human). Nature of the test: flow cytometry, upregulation of HLA-A2 on T2A2 cells, peptide 25 µg/mL, negative control. The following applies: remark: other sources report otherwise. On the technique in general: Flow cytometry measures light scatter and fluorescence of single cells or particles in a stream.
Test [2] shares this target. Nature of the test: flow cytometry, upregulation of HLA-A2 on T2A2 cells, peptide 12.5 µg/mL, negative control. The conditions noted are these: remark: other sources report otherwise.

For HLFGYSWYK [CAP-7], the T2A2 Binding (MFI) in test [1] stood at 83.8 MFI. In test [2], this molecule yielded a T2 Binding (MFI) of 109 MFI.
